Laboratory results reported in US20200247889A1 (published 2020).

T1: mouse TREM1 (mouse, UniProt Q9JKE2 21-230)
T1 construct: whole, on cells; also called mTREM1
T1 sequence (looked up): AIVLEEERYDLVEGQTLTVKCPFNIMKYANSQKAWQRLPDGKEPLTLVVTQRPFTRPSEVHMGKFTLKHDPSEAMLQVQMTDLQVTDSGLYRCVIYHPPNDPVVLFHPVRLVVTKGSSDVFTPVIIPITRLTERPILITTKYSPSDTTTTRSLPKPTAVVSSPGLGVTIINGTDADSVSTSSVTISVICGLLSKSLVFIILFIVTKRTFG

T2: cynomolgus TREM1 (cynomolgus, UniProt A0A2K5VHG8 21-233)
T2 construct: whole, on cells; also called cTREM1
T2 sequence: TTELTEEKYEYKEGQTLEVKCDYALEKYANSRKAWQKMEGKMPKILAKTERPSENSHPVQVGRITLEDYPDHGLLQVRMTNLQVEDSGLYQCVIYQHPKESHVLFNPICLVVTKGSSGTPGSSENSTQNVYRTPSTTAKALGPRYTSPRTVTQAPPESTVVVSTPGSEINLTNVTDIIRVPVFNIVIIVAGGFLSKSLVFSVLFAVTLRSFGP


Assays:
mouse TREM1 [1] = biological target: T1, mouse TREM1; test: flow cytometry cross-blocking on HEK293 cells over-expressing mouse TREM-1
Method: 100,000 HEK293 cells over-expressing mouse TREM-1 were plated in 96 well plates and dead cells were stained with Zombie Near Infrared (Biolegend, San Diego, Calif.). These cells were subsequently incubated with the indicated unconjugated anti-mouse TREM-1 antibodies at saturating concentrations for 15 mins on ice. Following incubation with these antibodies, cells were then stained with the indicated Alexa Fluor 647 conjugated antibodies for 30 mins on ice. The ability of conjugated antibodies to bind in the presence of unconjugated antibodies was assessed by Alexa 647 signal measured by flow cytometry (BD Fortessa X-14, BD Biosciences, San Jose, Calif.).
The sequences denote the linear amino acid stretches that comprise each domain and the numbering is according to UniProt sequence analysis and 3D modelling of mouse TREM1.

mouse TREM1 [2] = biological target: T1, mouse TREM1; test: in vivo receptor occupancy, flow cytometry of tumor cells
Method: CT26 (colon adenocarcinoma), LL/2 (lung adenocarcinoma), MC38 (colon adenocarcinoma), and RENCA (renal cell carcinoma) were harvested using StemPro Accutase Dissociation reagent (Gibco Corporation), washed in PBS and subcutaneously injected to female C57BL/6 (Jackson Laboratories) or BALB/c (Taconic Biosciences) mice at a dose between 8×10⁵-1×10⁶ cells in the right ventral flank. […] Antibody treatments were 15 mg/kg for both arms and mice were treated twice at the indicated time points. 48 hr after the second dose, mice were euthanized and the tumor and blood were harvested for immune population analysis and expression of TREM1. Immune population and expression analyses were performed by flow cytometry (BD Fortessa X-14, BD Biosciences).

mouse TREM1 [3] = biological target: T1, mouse TREM1; test: flow cytometry on HEK293 cells over-expressing mouse TREM-1
Method: 100,000 HEK 293 parental or over-expressing mouse TREM-1 were plated in 96 well plates and dead cells were stained with Zombie Near Infrared (Biolegend, San Diego, Calif.). […] These primary unconjugated antibodies were detected with Alexa Fluor 647 conjugated anti-mouse Fcγ secondary antibodies (Jackson Immunoresearch, West Grove, Pa.). Alexa Fluor 647 signal was measured by flow cytometry (BD Fortessa X-14, BD Biosciences, San Jose, Calif.). EC50 values were calculated by curve fitting signal generated from antibodies binding to over-expressing cells over background fluorescence generated from HEK293 parental cells in Graphpad Prism (Graphpad Software, La Jolla, Calif.).

cynomolgus TREM1 = biological target: T2, cynomolgus TREM1; test: flow cytometry on HEK293 cells over-expressing cynomolgus TREM-1
Method: Titrations of indicated unconjugated antibodies were incubated with these cells within a range of 0 ug/ml to 30 ug/ml in a 1:4 or 1:5 dilution range across 8 points. […] EC50 values were calculated by curve fitting signal generated from antibodies binding to over-expressing cells over background fluorescence generated from HEK293 parental cells in Graphpad Prism (Graphpad Software).

binding result (mouse TREM1 [1])	binding result (mouse TREM1 [3])	Binder	further results
binds	–	Pi-9067L (antibody, mouse IgG2a, kappa, V domains shown, Anti-mouse TREM1; also called WT Pi-9067L; fucosylated PI-9067L) VH: EVQLVESGGGLVQPGGSLRLSCAASGFDIYSYSIHWVRQAPGKGLEWVAYIYPSYGYTSYADSVKGRFTISADTSKNTAYLQMNSLRAEDTAVYYCARGAVAALDYWGQGTLVTVSS VL: DIQMTQSPSSLSASVGDRVTITCRASQSVSSAVAWYQQKPGKAPKLLIYSASSLYSGVPSRFSGSRSGTDFTLTISSLQPEDFATYYCQQYGVSGYSLITFGQGTKVEIKR	–
–	–	Pi-9069L (antibody, mouse IgG2a, kappa, V domains shown) VH: EVQLVESGGGLVQPGGSLRLSCAASGFDLYSSYIHWVRQAPGKGLEWVASIYPSYGYTYYADSVKGRFTISADTSKNTAYLQMNSLRAEDTAVYYCARSHSYVHGAMDYWGQGTLVTVSS VL: DIQMTQSPSSLSASVGDRVTITCRASQSVSSAVAWYQQKPGKAPKLLIYSASSLYSGVPSRFSGSRSGTDFTLTISSLQPEDFATYYCQQYWWVPAAPITFGQGTKVEIKR	binding result (mouse TREM1 [2]): binds
–	binds	afucosylated Pi-9067L (antibody, mouse IgG2a, kappa, V domains shown, afucosylated Fc glycan, Same polypeptides as Pi-9067L, afucosylated; also called Afuc-Pi-9067L; Afuc-PI-9067L) VH: EVQLVESGGGLVQPGGSLRLSCAASGFDIYSYSIHWVRQAPGKGLEWVAYIYPSYGYTSYADSVKGRFTISADTSKNTAYLQMNSLRAEDTAVYYCARGAVAALDYWGQGTLVTVSS VL: DIQMTQSPSSLSASVGDRVTITCRASQSVSSAVAWYQQKPGKAPKLLIYSASSLYSGVPSRFSGSRSGTDFTLTISSLQPEDFATYYCQQYGVSGYSLITFGQGTKVEIKR	–
–	–	Pi-8421 (antibody, V domains shown) VH: EVQLVESGGGLVQPGGSLRLSCAASGFDISYSSIHWVRQAPGKGLEWVASIYSSYGSTYYADSVKGRFTISADTSKNTAYLQMNSLRAEDTAVYYCARYYYSHAGWYVSGYWPAIDYWGQGTLVTVSS VL: DIQMTQSPSSLSASVGDRVTITCRASQSVSSAVAWYQQKPGKAPKLLIYSASSLYSGVPSRFSGSRSGTDFTLTISSLQPEDFATYYCQQSSYSLITFGQGTKVEIK	binding result (cynomolgus TREM1): no binding (tested: titrated within 0 ug/ml to 30 ug/ml)
binds	–	Pi-4928 (antibody, mouse IgG2a, kappa, V domains shown, Anti-mouse TREM1 mAb) VH: QVQLKESGPGLVQPSQTLSLTCTVSGFSITSSNVYWFRQPPGKGLEWMGNIWGDGSTDYNSSLKSRLTLSRDTSKNQVFLKINSLQSEDTATYFCTRSWEYYFDHWGQGVVVTVSS VL: DIVLTQSPALAVSPGQRATLSCRASQSVTLSNVNLMNWYQQKPGQQPKLLIYHASNLASGIPTRFSGSGSGTDFTLTIDPVQADDIAAYYCQQSGESPRTFGGGTKVELKR	–
–	binds	afucosylated Pi-4928 (antibody, mouse IgG2a, kappa, V domains shown, afucosylated Fc glycan) VH: QVQLKESGPGLVQPSQTLSLTCTVSGFSITSSNVYWFRQPPGKGLEWMGNIWGDGSTDYNSSLKSRLTLSRDTSKNQVFLKINSLQSEDTATYFCTRSWEYYFDHWGQGVVVTVSS VL: DIVLTQSPALAVSPGQRATLSCRASQSVTLSNVNLMNWYQQKPGQQPKLLIYHASNLASGIPTRFSGSGSGTDFTLTIDPVQADDIAAYYCQQSGESPRTFGGGTKVELKR	–
binds	–	Pi-9772 (antibody, mouse IgG2a, kappa, V domains shown, Anti-mouse TREM1 mAb) VH: EVQLVESGGGLVQPGGSLRLSCAASGFDLSYSSMHWVRQAPGKGLEWVAYISPYSGYTSYADSVKGRFTISADTSKNTAYLQMNSLRAEDTAVYYCARHGSWSYGFSSGFDYWGQGTLVTVSS VL: DIQMTQSPSSLSASVGDRVTITCRASQSVSSAVAWYQQKPGKAPKLLIYSASSLYSGVPSRFSGSRSGTDFTLTISSLQPEDFATYYCQQYAYYYPITFGQGTKVEIKR	–
–	binds	afucosylated Pi-9772 (antibody, mouse IgG2a, kappa, V domains shown, afucosylated Fc glycan) VH: EVQLVESGGGLVQPGGSLRLSCAASGFDLSYSSMHWVRQAPGKGLEWVAYISPYSGYTSYADSVKGRFTISADTSKNTAYLQMNSLRAEDTAVYYCARHGSWSYGFSSGFDYWGQGTLVTVSS VL: DIQMTQSPSSLSASVGDRVTITCRASQSVSSAVAWYQQKPGKAPKLLIYSASSLYSGVPSRFSGSRSGTDFTLTISSLQPEDFATYYCQQYAYYYPITFGQGTKVEIKR	–
